Test results taken from patent US20220025002A1 (INSTITUT PASTEUR, published 2022).
Each block holds one binder with its values, some of them ahead of it. Bridges are numbered along the chain shown (N, C = ends). Where no end group is shown, it is not given here. [ ]: non-standard residue; d: D form. GluOMe = glutamic acid methyl ester; R8 = C=CCCCCCC[C@@](C)(N)C(=O)O; S5 = C=CCCC[C@](C)(N)C(=O)O; Aib = CC(C)(N)C(=O)O

Tests used:
[1] = molecular target: T1, CC2-LZ domain of NEMO (mouse CC2-LZ) (mouse, UniProt O88522 251-337, limits assumed); test: fluorescence polarization, labelled peptide fixed at 0.1 µM, CC2-LZ titrated
T1 construct: domain: CC2-LZ; The methods say that the mouse CC2-LZ was used in the fluorescence anisotropy assay; also called NOA; UBAN
Method: (§1) Anisotropy data were calculated using the Magellan software version 6.5. Prior experiments, the mouse CC2-LZ was extensively dialyzed in binding buffer containing 20 mM HEPES pH 7.4, 100 mM NaCl, and 0.05% P20 detergent (v/v). All experiments were performed in a 384 well plate (vol 25 μl) at room temperature. The BODIPY®-labeled peptide concentrations were fixed at 0.1 or 10 μM whereas the CC2-LZ concentration varied from 0 to 100 μM. Reference calibrated at 22 mP, was based on the fluorescence of the peptide alone. Each experimental binding curve was determined from at least 10 independent concentration points. The G-factor was calculated as previously described in Agou et al. [7], with a value of 0.75, which was observed constant within 5% upon all titrations. For analysis, the blank value corresponding to the value of buffer alone, was subtracted from all titration data. The integration time was 20 μs. Experiments were done in duplicate, and the KD was estimated by fitting the anisotropy data with the rectangular hyperbolic binding equation, using KaleidaGraph software as described elsewhere [1].
(§2) For each peptide titration, various concentration of the target ranging from 0 to 100 μM and a fixed concentration of peptide at 0.1 or 10 μM were used at 25° C. […] For these reasons, all further titration experiments were performed with a fixed peptide concentration of 0.1 μM unless otherwise indicated.

[2] = molecular target: T1, CC2-LZ domain of NEMO (mouse CC2-LZ); test: fluorescence polarization, labelled peptide fixed at 10 µM, CC2-LZ titrated
Method: as §1, §2

[3] = molecular target: T2, NEMO (NF-kB essential modulator) in 70Z3-C3 pre-B lymphocytes (UniProt O88522 1-412, limits assumed); test: cell-based or functional assay
[4] = molecular target: T1, CC2-LZ domain of NEMO (mouse CC2-LZ); test: fluorescence polarization, labelled peptide, CC2-LZ titrated
[5] = molecular target: T2, NEMO (NF-kB essential modulator) in …; test: cell-based or functional assay; remark: listed apart in the source
[6] = molecular target: NEMO (NF-kB essential modulator), human, in DLBCL cell lines (human, UniProt Q9Y6K9 1-419); test: cell-based or functional assay
Chain of NEMO (NF-kB essential modulator), human, in DLBCL cell lines (Q9Y6K9 whole entry): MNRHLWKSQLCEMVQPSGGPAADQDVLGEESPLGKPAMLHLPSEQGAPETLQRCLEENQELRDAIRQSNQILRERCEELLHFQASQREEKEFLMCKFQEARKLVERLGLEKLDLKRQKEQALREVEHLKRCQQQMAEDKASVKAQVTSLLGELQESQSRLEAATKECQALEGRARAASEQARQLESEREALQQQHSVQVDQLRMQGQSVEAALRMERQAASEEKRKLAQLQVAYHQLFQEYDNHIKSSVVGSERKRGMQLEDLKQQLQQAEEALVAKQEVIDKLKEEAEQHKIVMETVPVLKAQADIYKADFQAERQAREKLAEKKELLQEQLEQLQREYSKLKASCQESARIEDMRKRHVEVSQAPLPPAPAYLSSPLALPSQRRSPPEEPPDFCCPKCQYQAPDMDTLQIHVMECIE

T2 sequence (O88522 whole entry, the tested form may be a part): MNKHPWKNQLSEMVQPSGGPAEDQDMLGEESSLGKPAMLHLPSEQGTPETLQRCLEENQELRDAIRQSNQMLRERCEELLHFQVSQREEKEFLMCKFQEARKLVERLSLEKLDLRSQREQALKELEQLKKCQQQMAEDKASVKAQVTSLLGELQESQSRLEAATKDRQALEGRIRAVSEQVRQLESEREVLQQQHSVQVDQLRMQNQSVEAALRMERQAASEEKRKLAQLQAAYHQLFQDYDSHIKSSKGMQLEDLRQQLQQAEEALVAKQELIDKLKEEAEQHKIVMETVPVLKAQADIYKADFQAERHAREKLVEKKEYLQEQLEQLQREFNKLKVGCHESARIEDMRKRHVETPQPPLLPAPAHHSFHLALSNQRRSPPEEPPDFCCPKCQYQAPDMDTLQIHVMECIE
T1 sequence (O88522 251-337 limits assumed): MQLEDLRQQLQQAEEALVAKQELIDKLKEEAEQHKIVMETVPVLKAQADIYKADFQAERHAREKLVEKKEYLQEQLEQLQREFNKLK

Kd [1]: ~360 µM
B2: UBI-SAHN A303-I307 (peptide)
peptide: Ac-CLK[S5]QAD[S5]YKARFQAERHAREK
modifications: staple 4-8; also: N-terminal Cys thiol labelled with BODIPY or FITC (BODIPY FL maleimide)
notes: Stapled i,i+4; also called A303 S5-I307 S5

Kd [4]: 23 µM | IC50, NF-κB inhibition in 70Z3-C3 reporter cells [5]: 0.8 µM
B3: UBI-SAHN D306-Q313 Q/Q (peptide)
peptide: Ac-CLKAQA[R8]IYKARF[S5]AQRHARQK
modifications: staple 7-14; not fully specified (C-terminus); printed as LKAQAX2IYKARFX5AQRHARQK; also: extra N-terminal Cys labelled with BODIPY or FITC, staple cis/trans isomer not given here
notes: also called D306 R8-Q313 S5 E315Q E320Q

Kd [4]: 24 µM | IC50, NF-κB inhibition in 70Z3-C3 reporter cells [5]: 1.9 µM
B7: UBI-SAHN D306-Q313 OMe (peptide)
peptide: Ac-CLKAQA[R8]IYKARF[S5]A[GluOMe]RHAR[GluOMe]K
modifications: staple 7-14; also: N-terminal Cys labelled with BODIPY or FITC (which one not given here)
notes: also called D306 R8-Q313 S5 E315MeGlu E320MeGlu

Kd [1]: 76 µM
B8: UBI-SAHN A303-A310, conformer A (peptide)
peptide: Ac-CLK[R8]QADIYK[S5]RFQAERHAREK
modifications: staple 4-11; not fully specified (C-terminus); also: extra N-terminal Cys labelled with BODIPY or FITC (label not settled), staple isomer A (cis)
notes: also called UBI-SAHNA303-A310 (A); A303 R8-A310 S5

Kd [1]: 211 µM
B10: UBI-SAHN A303-A310, conformer B (peptide)
peptide: Ac-CLK[R8]QADIYK[S5]RFQAERHAREK
modifications: staple 4-11; not fully specified (C-terminus); also: extra N-terminal Cys labelled with BODIPY or FITC (label not settled), staple isomer B (trans)
notes: also called UBI-SAHNA303-A310 (B)

Kd [1]: ~360 µM
B12: UBI-SAHN A310-A314 (peptide)
peptide: Ac-CLKAQADIYK[S5]RFQ[S5]ERHAREK
modifications: staple 11-15; also: N-terminal Cys thiol labelled with BODIPY or FITC (BODIPY FL maleimide)
notes: Stapled i,i+4; also called A310S5-A314 S5

Kd [1]: 85 µM
B14: UBI-SAHN D306-A310 (peptide)
peptide: Ac-CLKAQA[S5]IYK[S5]RFQAERHAREK
modifications: staple 7-11; also: N-terminal Cys labelled with BODIPY or FITC, which one is not given here
notes: Stapled i,i+4; also called D306 R8-A310 S5

IC50, NF-κB inhibition in 70Z3-C3 reporter cells [5]: 1.3 µM
Binder: LKAQA[S5]IYK[S5]RFQAQRHARQK (staple 6-10) [UBI-SAHN D306-A310 with the double substitution Glu-Gln (E315Q E320Q)]

Second part, the binder before the results:

Binder: CRQIKIWFQNRRMKWKKLK[Aib]Q[Aib]DIYK[Aib]RFQ[Aib]ERH[Aib]REK (also: N-terminal Cys labelled with BODIPY or FITC) [A-UBI-AIB]
Kd [1]: 5 µM | Kd [2]: 24 µM | IC 50(µM), NF-κB inhibition in LPS-stimulated 70Z3-C3 lacZ reporter cells [3]: 1.5 µM

B1: A-UBI-SAHN A310-A314 (peptide)
peptide: Ac-CRQIKIWFQNRRMKWKKLKAQADIYK[S5]RFQ[S5]ERHAREK-NH2
modifications: staple 27-31; also: N-terminal Cys thiol labelled with BODIPY or FITC (BODIPY FL maleimide)
notes: Stapled i,i+4 with N-terminal antennapedia
Kd [1]: 0.2 µM | Kd [2]: 21 µM | IC 50(µM), NF-κB inhibition in LPS-stimulated 70Z3-C3 lacZ reporter cells [3]: 0.43 µM

B4: Co-UBI-SAHN I307-A314, conformer A (peptide)
peptide: Ac-CELAQLQAELD[R8]VQAVVQ[S5]DKQELRKL
modifications: staple 12-19; not fully specified (C-terminus); also: extra N-terminal Cys labelled with BODIPY or FITC (label not settled), staple isomer A (cis)
notes: 26 aa control peptide; also called Co-SAHN I307-A314 (A); I307 R8-A314 S5
Kd [2]: > 10000 µM

B5: A-UBI-SAHN D306-Q313, conformer A (peptide)
peptide: Ac-CRQIKIWFQNRRMKWKKLKAQA[R8]IYKARF[S5]AERHAREK-NH2
modifications: staple 23-30; also: extra N-terminal Cys labelled with BODIPY or FITC (label not settled), staple isomer A (cis)
notes: With N-terminal antennapedia; also called A-UBI-SAHND306-Q313 (A)
Kd [1]: 0.06 µM | IC 50(µM), NF-κB inhibition in LPS-stimulated 70Z3-C3 lacZ reporter cells [3]: 0.6 µM

B6: A-UBI-SAHN A303-A310, conformer B (peptide)
peptide: Ac-CRQIKIWFQNRRMKWKKLK[R8]QADIYK[S5]RFQAERHAREK-NH2
modifications: staple 20-27; also: Cys1 thiol labelled with BODIPY or FITC (which one not fixed), conformer B
notes: With N-terminal antennapedia
Kd [1]: 0.02 µM | IC 50(µM), NF-κB inhibition in LPS-stimulated 70Z3-C3 lacZ reporter cells [3]: 0.6 µM

B9: A-UBI-SAHN A303-A310, conformer A (peptide)
peptide: Ac-CRQIKIWFQNRRMKWKKLK[R8]QADIYK[S5]RFQAERHAREK-NH2
modifications: staple 20-27; not fully specified; also: conformer A
notes: With N-terminal antennapedia; also called A-UBI-SAHNA303-A310 (A)
Kd [1]: 0.3 µM

B11: A-UBI-SAHN D306-Q313 OMe (peptide)
peptide: Ac-CRQIKIWFQNRRMKWKKLKAQA[R8]IYKARF[S5]A[GluOMe]RHAR[GluOMe]K-NH2
modifications: staple 23-30; also: N-terminal Cys labelled with BODIPY or FITC, which one is not given here
Kd [4]: 0.06 µM

Binder: RQIKIWFQNRRMKWKKLKAQA[R8]IYKARF[S5]AERHAREK (staple 22-29; also: staple conformer not given here) [A-UBI-SAHN D306-Q313 (conformer not stated)]
EC50 of cell death, HLY1 cells, depending on incubation time [6]: 0.65 to 1.1 µM | EC50 of cell death, OCY-Ly3 cells, 7 h [6]: 2.6 µM | EC50 of cell death, OCY-Ly3 cells, 24 h [6]: 2.1 µM | EC50 of cell death, OCY-Ly3 cells, 48 h [6]: 5 µM

Binder: CLK[Aib]Q[Aib]DIYK[Aib]RFQ[Aib]ERH[Aib]REK (also: extra N-terminal Cys carries BODIPY or FITC label (not settled)) [UBI-AIB]
Kd [1]: > 10000 µM | Kd [2]: > 10000 µM

B13: A-UBI-SAHN D306-Q313, conformer B (peptide)
peptide: Ac-CRQIKIWFQNRRMKWKKLKAQA[R8]IYKARF[S5]AERHAREK-NH2
modifications: staple 23-30; also: extra N-terminal Cys labelled with BODIPY or FITC (label not settled), staple isomer B (trans)
notes: With N-terminal antennapedia; also called A-UBI-SAHND306-Q313 (B)
Kd [1]: 0.05 µM

B15: Co-UBI-SAHN I307-A314, conformer B (peptide)
peptide: Ac-CELAQLQAELD[R8]VQAVVQ[S5]DKQELRKL
modifications: staple 12-19; not fully specified (C-terminus); also: extra N-terminal Cys labelled with BODIPY or FITC (label not settled), staple isomer B (trans)
notes: 26 aa control peptide; also called Co-SAHN I307-A314 (B)
Kd [2]: > 10000 µM
